Data on one molecule can be found in US20020147326A1 (GlaxoSmithKline, published 2002).

Assay [1] concerns the target T1, CTLA4-Ig (human, UniProt P16410 36-161).
T1 construct: also called CTLA4-Fc; not shown: human IgG1 heavy chain Fc region (hinge, CH2, CH3) of vector COSFcLink
The experiment in a line: isothermal titration calorimetry, in solution, 44° C. (In general: Isothermal titration calorimetry measures the heat released or taken up as one component is titrated into another.)

In assay [2] the target is T2, human CD28 expressed on the cell surface (human, UniProt P10747 19-220).
T2 construct: whole, on cells; also called CD28 positive cells; PCD28.1.s2.1 cells
The experiment in a line: flow cytometry on PCD28.1.s2.1 cells expressing human CD28. A general note: In flow cytometry, cells or beads pass a laser one at a time.
Procedure: Non-adherent CD28 expressing cells (PCD28.1.s2.1) were used for this assay format. […] All incubations were carried out on ice. […] After washing twice in binding buffer, bound fusion proteins were detected with a 1:2000 dilution of a goat anti-human polyclonal antibody labeled with FITC (Flourescein isothiocyanate, Southern Biotech).

Assay [3] deals with T1, CTLA4-Ig. Put plainly: isothermal titration calorimetry, in solution, 37° C.
Assay [4] addresses T1, CTLA4-Ig. The experiment in a line: isothermal titration calorimetry at 44° C., Kd corrected to 37° C. by the van't Hoff equation.
Assay [5] addresses T1, CTLA4-Ig. Put plainly: isothermal titration calorimetry, Kd at 37° C., measured at 37° C.

T1 sequence (P16410 other isoform, or with tags, fused parts or gaps): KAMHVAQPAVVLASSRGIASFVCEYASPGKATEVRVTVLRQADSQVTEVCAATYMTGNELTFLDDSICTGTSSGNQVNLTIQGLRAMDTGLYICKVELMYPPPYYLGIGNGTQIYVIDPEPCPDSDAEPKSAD

B1: CD86-Ig (Fc fusion)
chain: APLKIQAYFNETADLPCQFANSQNQSLSELVVFWQDQENLVLNEVYLGKEKFDSVHSKYMGRTSFDSDSWTLRLHNLQIKDKGLYQCIIHHKKPTGMIRIHQMNSELSVLANFSQPEIVPISNITENVYINLTCSSIHGYPEPKKMSVLLRTKNSTIEYDGIMQKSQDNVTELYDVSISLSVSFPDVTSNMTIFCILETDKTRLLSSPFSIELEDPQPPPDHEPKSADKTHTCPPCP
notes: Mature N-terminus LKIQ-, junction PPPDHepksa; also called B7.2-Ig; monomeric CD86-Ig; not shown: human IgG1 heavy chain Fc region (hinge, CH2, CH3) of vector COSFcLink
A word on the Kd: it is a measure of binding affinity in units of concentration. A high value points to weaker binding. Turning to B1, the dissociation constant (Kd) with CTLA4-Ig [1] was 71 nM; in the assay with CTLA4-Ig [3], 38 nM; with CTLA4-Ig [4] it was 22 nM; in the assay with CTLA4-Ig [5] it was 40 nM. The “Molar Ratio (CTLA4-Ig per construct)” value with CTLA4-Ig [1] is 0.79; with CTLA4-Ig [3], 0.8. Besides, the ΔH was -34 kcal/mol in the assay with CTLA4-Ig [1] and -33 kcal/mol with CTLA4-Ig [3]. In assay [2], the binding result is “no binding”.
